The values below come from patent US20260109776A1 (Amgen, published 2026).

Like-named read-outs stand apart in the source and are kept apart here. Bounds are passed on as bounds.

In experiment [1] the target is human CD40 (human, UniProt P25942 21-193, limits assumed). Nature of the experiment: Octet. The protocol: (§1) The binding affinity of anti-human CD40 antibodies to human and cynomolgus monkey CD40 was measured by Octet assay (Table 3), quantifying association rate (Kon), disassociation rate (Kdis), and equilibrium binding constant (KD). Cross-reactivity of anti-CD40 antibodies to related TNF receptor superfamily (TNFRSF) members was evaluated by expressing human TNFR1, TNFR2, TNFR10, or TNFR14 on HEK293 cells by transient transfection of expression vectors encoding these genes. Binding of indicated anti-human CD40 antibody to these transfected cells was determined by flow cytometry. […] Cross-reactivity of anti-CD40 antibodies to cynomolgus monkey and mouse CD40 was evaluated by expressing cynomolgus monkey or mouse CD40 on HEK293 cells by transient transfection of expression vectors encoding these genes. Binding of indicated anti-human CD40 antibody to cells overexpressing cynomolgus monkey and mouse CD40 was determined by flow cytometry.
Sequence of human CD40 (P25942 21-193 limits assumed): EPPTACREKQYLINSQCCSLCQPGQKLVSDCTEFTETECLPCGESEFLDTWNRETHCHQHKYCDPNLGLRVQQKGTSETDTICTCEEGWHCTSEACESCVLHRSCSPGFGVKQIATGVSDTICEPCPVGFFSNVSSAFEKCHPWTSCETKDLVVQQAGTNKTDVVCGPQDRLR
For orientation: In BLI a coated tip is dipped into the sample, and binding shifts an interference pattern.

For experiment [2], the target named is T1, cynomolgus monkey CD40 (cynomolgus monkey, UniProt P25942 21-193 (human entry), limits assumed).
T1 chain: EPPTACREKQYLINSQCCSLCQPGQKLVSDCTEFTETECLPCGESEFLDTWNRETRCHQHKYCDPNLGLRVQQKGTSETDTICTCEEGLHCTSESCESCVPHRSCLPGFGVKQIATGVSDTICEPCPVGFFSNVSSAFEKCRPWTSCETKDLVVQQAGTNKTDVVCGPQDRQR
Nature of the experiment: Octet. On the procedure: as §1

For experiment [3], the target named is T2, human CD40 on cells (human, UniProt P25942 21-277). Put plainly: cell-based or functional assay.
In experiment [4] the target is T2, human CD40 on cells. Put plainly: cell-based or functional assay. This is another data set of the same source.
Target sequence in this assay (P25942 21-277 limits assumed): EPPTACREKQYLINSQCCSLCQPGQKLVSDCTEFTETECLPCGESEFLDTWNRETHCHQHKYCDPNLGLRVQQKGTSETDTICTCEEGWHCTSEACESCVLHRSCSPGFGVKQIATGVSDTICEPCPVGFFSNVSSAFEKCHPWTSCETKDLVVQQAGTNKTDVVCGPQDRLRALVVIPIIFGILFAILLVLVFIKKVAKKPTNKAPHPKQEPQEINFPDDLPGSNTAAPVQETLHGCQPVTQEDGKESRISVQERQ
Experiment [5] addresses T3, mouse CD40 on cells (mouse, UniProt P27512 20-289).
T3 construct: whole, on cells; also called mouse CD40 on HEK293 cells; CD40 on mouse B cells
T3 sequence (looked up): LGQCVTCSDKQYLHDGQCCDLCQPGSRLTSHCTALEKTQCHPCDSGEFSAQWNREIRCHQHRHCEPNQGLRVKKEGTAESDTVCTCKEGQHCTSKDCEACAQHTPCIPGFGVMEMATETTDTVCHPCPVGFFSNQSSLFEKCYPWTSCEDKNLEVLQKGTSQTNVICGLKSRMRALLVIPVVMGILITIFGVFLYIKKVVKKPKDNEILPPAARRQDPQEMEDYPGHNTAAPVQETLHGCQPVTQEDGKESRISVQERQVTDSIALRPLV
Put plainly: flow cytometry, HEK293 transfectants. In general terms: In flow cytometry, cells or beads pass a laser one at a time.

For experiment [6], the target named is T4, cynomolgus monkey CD40 on cells (cynomolgus monkey, UniProt P25942 21-277 (human entry)).
T4 construct: also called cyno CD40 on HEK293 cells; CD40 on cynomolgus monkey B cells
T4 chain: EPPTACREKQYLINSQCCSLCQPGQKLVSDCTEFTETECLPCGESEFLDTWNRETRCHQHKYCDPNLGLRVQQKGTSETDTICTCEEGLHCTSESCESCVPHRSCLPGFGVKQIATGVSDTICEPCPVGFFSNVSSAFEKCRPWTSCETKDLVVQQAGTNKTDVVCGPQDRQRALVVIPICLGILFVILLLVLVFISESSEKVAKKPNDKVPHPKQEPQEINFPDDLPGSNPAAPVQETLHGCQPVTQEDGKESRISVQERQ
Put plainly: flow cytometry, HEK293 transfectants vs control cells. A digest of the protocol:
(§2)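 Anti-human CD40 antibodies were tested by flow cytometry for binding to HEK293 cells transiently transfected with human TNFR1, TNFR2, TNFR10, TNFR14, or cynomolgus or mouse CD40. Affinity for human and cynomolgus CD40 was measured by Octet, giving Kon, Kdis and KD.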

The target of experiment [7] is T5, human TNFR10 (human).
T5 construct: whole, on cells; Name as printed is ambiguous (TNFRSF10A-D)
The experiment is described as above. A digest of the protocol: as §2

Experiment [8] addresses T2, human CD40 on cells. Nature of the experiment: flow cytometry, labelled CD40L on CD40-293T cells, antibody at 2.5 ug/ml. On the procedure:
Percent ligand binding inhibition was calculated as [(CD40L binding gMFI in the absence of anti-CD40)−(CD40L binding gMFI in the presence of anti-CD40)]/(CD40L binding gMFI in the absence of anti-CD40). gMFI: geometric mean fluorescent intensity. All anti-CD40 antibodies show minimal effects on the ability of CD40L to bind to the CD40 receptor (Table 7).
Target sequence in this assay (P25942 21-277 limits assumed): as the sequence (P25942 21-277 limits assumed) above

B1: 30A12 (antibody, IgG4, V domains shown)
VH: EVQLLESGGGLVQPGGSLRLSCAASGFTFSRNAMSWVRQAPGKGLEWVSATGGSGISTYYADSVKGRFTISRDNSKNTLYLQMNSLRAEDTAVYYCARGYSNSWWYFDYWGQGTLVTVSS
VL: QSALTQPASVSGSPGQSITISCTGTSSDVGNYNLVSWYQQHPGKAPKLMIFEVNQRPSGVSNRFSGSKSGTTASLTISGLQAADEADYFCCSYTTSSTYVIFGGGTKLTVLG
notes: also called 4878-1
Usually Kd stands for the constant that tells how readily two partners part at equilibrium. One may read the koff as the rate constant with which the complex falls apart. As a reminder, the kon is a measure of how fast the partners come together. Regarding B1, in experiment [1], the affinity, expressed as Kd, was 0.69 nM; the koff was 0.000368 s⁻¹; the kon is 533000 M⁻¹ s⁻¹. In experiment [2], this molecule registered a Kd of 0.56 nM, a koff of 0.000306 s⁻¹ and a kon of 544000 M⁻¹ s⁻¹. Besides, in experiment [3], the “human B cell proliferation, no crosslinking, EC50” value is above 16.7 nM; the “human B cell proliferation, no crosslinking, Max Fold Change” value came out at 1.45 fold; the “human B cell proliferation, with protein G crosslinking, EC50” value stood at 0.362 nM; the “human B cell proliferation, with protein G crosslinking, Max Fold Change” value was determined as 23.8 fold. In experiment [4], the “human B cell proliferation, no crosslinking, % Max Activity” value came to 8.6%; the “human B cell proliferation, no crosslinking, EC50” value was above 16.7 nM; the “human B cell proliferation, with protein G crosslinking, % Max Activity” value was found to be 89.1%; the “human B cell proliferation, with protein G crosslinking, EC50” value was determined as 0.4 nM. In addition, the binding result in experiment [5] is reported as “no binding”. The “fold over control (gMFI)” value in experiment [6] worked out at 71 fold. In addition, the “fold over control (gMFI)” value in experiment [7] amounted to 0.91 fold. Also, the “Ligand Binding Inhibition (%)” value in experiment [8] was -16%.

B2: 4G7 (antibody, IgG4, V domains shown)
VH: QVQLVQSGAEVKKPGASVKVSCKASGYTFAGYYMHWVRQAPGQGLEWMGWINPDSGGTNFAQQFQGRVTMTRDTSISTAYMEVSRLRSDDTAVFYCAREKITMTGIYFDYWGQGTLVTVSS
VL: DIQMTQSPSSLSASVGDILTITCRASQNITTYLNWYQQKPGKAPNLLISAASRLRSGVPSRFSGSGSGTDFTLTISSLQPVDFTTFYCQQTFTTPWTFGQGTKVEIKR
notes: also called 4869-1
Consider B2, for which, in experiment [1], binding was put at a Kd of 0.88 nM, the koff stood at 0.00108 s⁻¹ and the kon was 1.23e+06 M⁻¹ s⁻¹. Moreover, in experiment [2], binding was put at a Kd of 1.72 nM, the koff is 0.00193 s⁻¹ and the kon is 1.13e+06 M⁻¹ s⁻¹. In experiment [3], the “human B cell proliferation, no crosslinking, EC50” value was above 16.7 nM; the “human B cell proliferation, no crosslinking, Max Fold Change” value was determined as 1.19 fold; the “human B cell proliferation, with protein G crosslinking, EC50” value was determined as 0.43 nM; the “human B cell proliferation, with protein G crosslinking, Max Fold Change” value worked out at 18.1 fold. Besides, in experiment [4], the “human B cell proliferation, no crosslinking, % Max Activity” value is 6%; the “human B cell proliferation, no crosslinking, EC50” value is above 16.7 nM; the “human B cell proliferation, with protein G crosslinking, % Max Activity” value was found to be 70.5%; the “human B cell proliferation, with protein G crosslinking, EC50” value was found to be 0.5 nM. In addition, the binding result in experiment [5] was “no binding”. Besides, the “fold over control (gMFI)” value in experiment [6] worked out at 57 fold. Further, the “fold over control (gMFI)” value in experiment [7] came to 0.87 fold. In experiment [8], the “Ligand Binding Inhibition (%)” value was 21%.

B3: 39C2 (antibody, IgG4, V domains shown)
VH: QVQLVQSGTEVKKPGASVKVSCKASGYTFPGYYMHWVRQAPGQGLEWMGWINPDSGGTKYTQKFQGRVTLTRDASVSTAYIDLNRLRSDDTAVYYCARERCRTTNCYLDYWGQGSLVTVSS
VL: QSALTQPASVSGSPGQSITISCTGTSSDVGNYNLVSWYQQHPGKAPKLMIYEVNRRPSGVSNRFSGSKSGNTASLTISGLQAEDEAEYYCCSYAGRDTFVVFGGGTKLTVLG
notes: also called 4887-1
In the case of B3, in experiment [1], binding was put at a Kd of 1.02 nM, the koff stood at 0.000614 s⁻¹ and the kon was 599000 M⁻¹ s⁻¹. In experiment [2], binding was put at a Kd of 0.73 nM, the koff was found to be 0.000376 s⁻¹ and the kon came out at 518000 M⁻¹ s⁻¹. Besides, in experiment [3], the “human B cell proliferation, no crosslinking, EC50” value was above 16.7 nM; the “human B cell proliferation, no crosslinking, Max Fold Change” value stood at 1.24 fold; the “human B cell proliferation, with protein G crosslinking, EC50” value was found to be 0.529 nM; the “human B cell proliferation, with protein G crosslinking, Max Fold Change” value came to 23 fold. In experiment [4], the “human B cell proliferation, no crosslinking, % Max Activity” value was 6.1%; the “human B cell proliferation, no crosslinking, EC50” value is above 16.7 nM; the “human B cell proliferation, with protein G crosslinking, % Max Activity” value worked out at 76.6%; the “human B cell proliferation, with protein G crosslinking, EC50” value is 0.21 nM. In experiment [5], the binding result is given as “no binding”. Further, the “fold over control (gMFI)” value in experiment [6] is 87 fold. Further, in experiment [7], the “fold over control (gMFI)” value is 0.86 fold. Besides, the “Ligand Binding Inhibition (%)” value in experiment [8] is 7%.
